Drawing on article PMC5777972 (Protein & Cell, 2017), this text covers koff, kon and Kd for two molecules.

For test [1], the target named is T1, PD-L1 extracellular domain fragment (from F19 to R238) (Homo sapiens, UniProt Q9NZQ7).
T1 construct: PD-L1 extracellular domain fragment, F19 to R238; probably the start methionine of the E. coli construct (surmise); also called two-Ig-domain PD-L1
The experiment in a line: SPR; BIAcore T100, CM5 chip, about 1000 RU of PD-L1 immobilised, scFv flowed at 5 nM to 80 nM, 25 °C, HBS-EP (150 mM NaCl, 10 mM HEPES, pH 7.4, 0.005% Tween-20), 1:1 Langmuir model. The note with it: both partners purified.

For the next test, the target named is T2, two-Ig-domain PD-L1 (Homo sapiens, UniProt Q9NZQ7).
T2 construct: PD-L1, the two Ig domains (IgV and the second Ig domain)
The experiment in a line: SPR; PD-L1 protein immobilised on the chip, scFvs of the anti-PD-L1 MAbs flowed through; BIAcore T100. The conditions noted are these: both partners purified.

T1 sequence (Q9NZQ7 19-238): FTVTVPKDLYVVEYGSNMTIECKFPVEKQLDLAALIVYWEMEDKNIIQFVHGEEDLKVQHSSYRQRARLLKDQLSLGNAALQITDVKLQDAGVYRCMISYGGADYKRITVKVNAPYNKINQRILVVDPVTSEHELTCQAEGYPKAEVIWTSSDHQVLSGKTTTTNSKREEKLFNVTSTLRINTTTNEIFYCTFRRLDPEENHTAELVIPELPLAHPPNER
T2 sequence (Q9NZQ7 19-238): as above

B1: avelumab-scFv (scFv, V domains shown)
VH: EVQLLESGGGLVQPGGSLRLSCAASGFTFSSYIMMWVRQAPGKGLEWVSSIYPSGGITFYADTVKGRFTISRDNSKNTLYLQMNSLRAEDTAVYYCARIKLGTVTTVDYWGQGTLVTVSS
VL: QSALTQPASVSGSPGQSITISCTGTSSDVGGYNYVSWYQQHPGKAPKLMIYDVSNRPSGVSNRFSGSKSGNTASLTISGLQAEDEADYYCSSYTSSSTRVFGTGTKVTVL
notes: VL of avelumab; avelumab-scFv 'obtained as durvalumab-scFv'; VH of avelumab; Order VL-linker-VH is stated for durvalumab-scFv only; also called avalumab-scFv
Regarding B1, in test [1], the koff was determined as 7.53e-05 s⁻¹ and the on-rate constant (kon) was 1.61e+06 M⁻¹ s⁻¹.

B2: scFv of avelumab (scFv, V domains shown)
VH: B1 VH
VL: B1 VL
notes: VH and VL of avelumab as in the cited complex with PD-L1, PDB 5GRJ; The parent antibody is IgG1; the scFv was used for SPR; Its preparation may be told in the supplementary information
Molecule B2 came in with a Kd with two-Ig-domain PD-L1 of 0.0467 nM.
